Experimental data published in patent publication US20240026407A1, “MODIFICATION OF SAPONINS” (GLAXOSMITHKLINE BIOLOGICALS SA, priority 2020, published 2024).

B1: 1061 (protein, listed as Rhizobium leguminosarum)
chain: MNFQPAAISGNLVSRTWSGDMIAPLSDGGQGTAASFVSKTFEHDGTKLPAELFISALGLYRCFINGVRVGSDLLTPGWTNYDDRLAYQRYDVSNLLKPGLNRIEIWLADGWYRSPLMWGAQAIPNCWGDRIGAIADLIGADGTVLSTDTTWRSGVLPILRSGIYFGEIYDARQENCVETHGTEKLAFDKALLVAHETAAVRELRPLTAVENWTDDEGRTIYDFGQNAGGYIRYTVRGTAGAEVRVEHSEVLGPDRHFDNRNYRTAAAHTVYTLRGNGDETYAPHFTFHGFRYARVTIKGDAKILAIASIPISSVPEPAGGFTSGNALVNRLVENTIWSQRANFVEVPTDCPQRDERLGWTGDAQVFAATACWLSDSQSFLRKYLRDVMADQREDGAVSHFSPDPTRLHPANFPGYAGSTGWGDAIVVIPWVLYTHYGDRAVLSECLESMVRWVDFVWSISDGPLVRPPSRWGDRGFTFGDWLQPVGDNRKPRPTIADDCAATLYHFISTDLLARIAATLGEHALEEKMKQRANEIRRAFTNEFITPAGRLAHNDQTSYALAFLHDLIPAEHRQAAQQHFRQVIIDADYKIGTGFIGTPALLPALTKLGMDDLAEKVFLQEDVPGWLYQVSKGATTIWERWDSMAPDGTIYEPDMNSYNHYAYGAVCQWLFESVAGISPSPSAPGFAEVIVDPAPIPSLSPVSAYHDISQGRIEAGWHCDGKKVTYVLTLPEGCIGWFRPGKRHQNPSLNGEPVVEEAVLAPGTHRLVFSLPNS
B2: 1075 (protein, listed as Asticcacaulis sp.)
chain: MTRLNRRHFLAASGLAATVAPTMSRSKTLAKTALGVTDLRAEQSENLLGTQAREPRLSWRLTGTERGIMQAGYRLRAGSKPGTADLWDSGNIASDACFDIPYKGKPLNAMQRVWWTVEVRDAKGRTATSAPAWFETGLLAPGDWKAQWIVAEDALAEGDRKAGLQWIWSEKALDNRLHAFRLDFDVPANLASSEVLIAGKDWIRGVWANGEQLPTPDQLVPNWGTLVPVPAKLKPGKNSVCVLVQAETTGFFPVDGGAFAALIRLRLSDGTIKRLVSDTNWKVRPLPPEAWTTADFDASGWVRAQKSGADAQNDPRPAEPAMLLRKAFTPAKKVVNARLYATALGAYEARLNGQPVSTAKMAPEISVTKDHIYYQTYDVTKLIRAGDNALGVVMGDGFYASAFGWRLERYGFGPAPRRLLAQLRLDYADGTSEWIVTDDSWRIGQSPIVTSEIYDGEVFDARLKTDGWDKTGFNAARWPAVRLGQAPHTKIVAQTGPLLVPVSKRRGTITQPKPGIYVIDFGQNFAGWARLNVKGTSGHTVTLKFAEYLKADGEVDQANLRMAKCRDIYTLRGDAGGETFEPSFTYHGFRYVQVENFPGVPTPADIEGIVVTSYCRETGRMTFDDPIIQKFWQNSVWSQRSNFFMVPTDCPQRDERMGWMGDIQVFLDAATFNMECDPFIRRYLDEVRASQTAEGAFPIVCPQPESFPEVTTAGWSEAGVILPWTLWRRYGDTAVIDENWVAMTKWMDYLFKYNPDYVWRKERGLDLGDWLSVDAVKPDDETTPRILCATGYWAYCADLMTQMAAATGREAEAAKYREVRAKIGAAFAKEFVDKDGKAGNGSQTSQILALYFNLVPAERRAAAGEILAKEIRGRGMKLSTGFLGTPYLLDVLADTGHLEEVSGLLKQREKPSWGYMPLKGATTMWERWDGDTGDLAMNSYNHYAYGAVCGFMYRRLAGLAPAAPGFRKMTVEPIYLPHVGKVTANYESCLGTMAGAVTGNASGLKTYDLTVPPNAVAEVILPDGAWREGGKALTGHADIRALRRDSGKVRFEVGSGSYRFKI
B3: 1001 (protein, listed as Brachybacterium faecium)
chain: MNSAPASPADTPSAGAGRPAAQLQDALAITAVEDTGRLPQLVHTVTLAQPRDQVRRAELLATAHGLYEMRIGGAPATESVLNPGWTTYERRLQVQRLDVTAQVRQRPEGLAAADADRLDLEATLADGWWRGDLGFDGGVRYGDDLALLAAVEIEFADGTRQRVVTDESWRSRPSAIMSANIYHGQHEDRRLGLGPETPVRVVEIDRSTLVEQVSPPVLRHESRRPERIWTSPAGRTLVDFGQNLVGWLRFTVTGPEGTEIVLRHAEVLEDGELGTRPLRAARATDRLVLAGDPAGETFEPTFTFHGFRYAEISGWPGELAAEDLEAVVVHSALRRTGWFECSHAGVNQLISNSLWSQRGNFLSVPTDCPQRDERLGWTGDIAAYAATAAFQHDVGDFLHGWLLDLGQEARMNPHGIVPFVVPDLLKPGLGAGDPAAADEGWGTPTAIWGDAAVWVAEALWTAYGDLDRLRAHYPAMVRHLDSVDRALSPSGLWDTGFQFGDWLDPDAPPEAADRAKADKGVVATACLVRSARFAAQAARLLGEEVDARRWQGLAERTLAAFTTAYVHENGTITSDCATVYALAIAFDLLDAGTRPRAAARLAEVVAEAGHRVSTGFAGTPFVTWALSETGHVEEAYRLLLEEGCPSWLYPVSMGATTIWERWDSMLPDGSINPGEMTSFNHYALGAVADWVYQVVLGVRPAAPGYRRIRIQPVPGPGIEWAEGAHDSAAGRIEVSWEHSADGLRGTATIPEGAEAEIVLPDGRARTVGPGRHSF
B4: 1007 (protein, listed as Modestobacter marinus)
chain: MSDPTVTVVRLRTDDDSGLTATANATPRLSWSLAADRSGVLQRGYEVQVAPDPGFADPVSSGEVDSDVVVDHDWPAAPLTSRQVAYWRVRVRTDQGWTAWGEPACVEAALLEDADWTARPVFLAGDRGRDGVGPAPLLRREFELPAEPVSARLYLTALGVHRTTLNGRPVGDELLEPGWTSYRDRLLYATHDVTALLRAGRNVLAGSVGDGWFRGNLGWDRLRDFYGDASALLAQLEVRCADGSTVTVSTDEHWRGGYGAVRAADLYDGCDIDLREEPVGWAEAGFDDAGWEPVGTLPLPAGLSQRALPPVRVLQEIEPQVSELSDGTLAVDAGQNVTGWLRLRVTGPSGARVTVRHAEVLDEKGRLVTTLLRSARATDTVVLAGGTADLEPEFTFHGFRYAEVEVPPGVTVDAVRVAVVASDLRRTGQFSCSNPRVDQLFSNVIWSQRDNFLSIPTDCPQRDERLGWTGDIMAFAPTAAANFDSRAFLDSWLTDVGIEQLPSGGVPMVVPNCLTGEFPSPLPQADGAAGWADAVTVVPAALFRAHGSRDLLRRHVGSMQRWVDYVAGLLAEDGTWSGYLQLGDWLDPNAPPERPFEAVTDRDYVATVFVAHSARLLAATCRELGRGPDADRYAALGDRVAQAAWAKWADLAPTTQTGCALAIVFGSAPDAELPALGDALAGLVRASGGRIGTGFLGTPFVLPALTATGHLAEAYQLLLNEECPGWLYQIRHGATTMWERWDGILADGSVHPGQMADGSTMSSFNHYAYGAVASWLYESVAGLSPAAPGYREVLVAPQPGGGLTRAAASIETEYGPASVGWSTDGATLTVDVTLPPGTTGRFAVPAGWSPQQPVALLGSGQHTLLLTGAGA

Experiments:
Assay type in all cases: biochemical, Quillaja saponaria
[1] = Experiment 6-2: screening of rhamnosidases for derhamnosylation of saponins in treated bark extract (25%), relative % of Left, Middle and Right Peak by UV HPLC; conditions: TBE 25%, pH 7.4, 19.5 h; for Left Peak: mainly QS-17 family, negative control 24%; for Middle Peak: mainly QS-18 and desglucosyl-QS-17 family, negative control 50%; for Right Peak: mainly QS-21 family, negative control 26%
[2] = Experiment 6-1: screening of rhamnosidases for derhamnosylation of saponins in treated bark extract (2%), QS-17 2296 to QS-18 2150 (PAR %); conditions: TBE 2%, pH 7.5, 30 degC, 18 h; TIC peak area ratio percent of rhamnosylated starting saponin to derhamnosylated product, LCMS/MS; negative controls 4.876, 5.225
[3] = Experiment 6-1: screening of rhamnosidases for derhamnosylation of saponins in treated bark extract (2%), QS-17 2310 to QS-18 2164 (PAR %); conditions: TBE 2%, pH 7.5, 30 degC, 18 h; TIC peak area ratio percent, LCMS/MS; negative controls 3.061, 2.429
[4] = Experiment 6-3: screening of rhamnosidases for derhamnosylation of saponins in crude bark extract (80%), relative % of Left, Middle and Right Peak by UV HPLC; conditions: CBE 80%, pH 7.4, 30 degC, 19.5 h; for Left Peak: mainly QS-17 family, negative control 27%; for Middle Peak: mainly QS-18 and desglucosyl-QS-17 family, negative control 48%; for Right Peak: mainly QS-21 family, negative control 26%
Protocol: Selected variants were expressed and lysed as in the method of experiment 6-1.
Crude bark extract (CBE) solution was adjusted to pH 7.4 by addition of NaOH (2M). 20 uL clarified lysate was transferred into fresh 96 well PCR plates. 80 uL CBE solution (pH 7.4) was added to each well of lysate to a final concentration of 80%. Plates were incubated at 30 degC with shaking for 19.5 h.
Quenched with 100 uL MeCN+2% AcOH and shaken at room temperature for 10 mins prior to centrifugation (10 min, 4 degC) to remove particulates. Samples were analysed by UV HPLC using method of Experiment 4-4.
Three key peaks of interest are apparent using this chromatography: Left Peak (retention time approximately 2.30-2.35 min) comprising mainly QS-17 family components; Middle Peak (retention time approximately 2.37-2.42 min) comprising mainly QS-18 family components and desglucosyl-QS-17 family components; and Right Peak (retention time approximately 2.44-2.50 min) comprising mainly QS-21 family components. Peak identity was supported by MS/MS.
Enzyme mediated hydrolysis of the alpha-O-rhamnosylation at the C2 position of the arabinofuranose moiety of QS-17 family components leads to a decrease in Left Peak and an increase in Middle Peak due to formation of QS-18 family components. Enzyme mediated hydrolysis of the alpha-O-rhamnosylation at the C2 position of the arabinofuranose moiety of desglucosyl-QS-17 family components leads to a decrease in Middle Peak and an increase in Right Peak due to formation of QS-21 family components.
The relative percentage of each peak was determined. A decrease in Left Peak and a concomitant increase in Middle Peak and Right Peak is observed for enzymes active under these conditions.

[5] = Experiment 6-1: specificity of rhamnosidases towards other rhamnose residues (C3 saccharide rhamnose, C28 saccharide rhamnose); conditions: TBE 2%, pH 7.5, 30 degC, 18 h; LCMS/MS; negative controls 0.18, 0.17
[6] = Experiment 6-1: screening of rhamnosidases for derhamnosylation of saponins in treated bark extract (2%), desglucosyl-QS-17 2134 to QS-21 1988 (PAR %); conditions: TBE 2%, pH 7.5, 30 degC, 18 h; TIC peak area ratio percent, LCMS/MS; negative controls 2.719, 2.158

Row | Molecule | Left Peak [1] | Middle Peak [1] | Right Peak [1] | QS-17 (PAR %) [2] | Peak57 (PAR %) [3] | Left Peak [4] | Middle Peak [4] | Right Peak [4] | ratio PP/QS-21 [5] | Peak75 (PAR %) [6]
1 | B1 | 13% | 59% | 28% | 0.245% | 0.029% | 26% | 48% | 27% | 0.19 | 0.230%
2 | B2 | 9% | 61% | 30% | 0.043% | 0.000% | 26% | 47% | 27% | 0.18 | 0.000%
3 | B3 | 14% | 59% | 27% | 0.075% | 0.000% | 31% | 45% | 24% | 0.19 | 0.137%
4 | B4 | 8% | 62% | 30% | 0.104% | 0.009% | 24% | 49% | 27% | 0.19 | 0.043%
